± gives the uncertainty stated by the source.
Test: self-splicing fitness, log relative to wild type (ln ratio); higher = more splicing; Tetrahymena group I intron in knt gene, E. coli kanamycin selection, DiMSum; sequences stand for … in CUCUCU…GGAGGGAAAAGUUAUCAGGCAUGCACCUGGUAGCUAGUCUUUAAACCAAUAGAUUGCAUCGGUUUAAAAGGCAAGACCGUCAAAUUGCGGGAAAGGGGUCAACAGCCGUUCAGUACCAAGUCUCAGGGGAAACUUUGAGAUGGCCUUGCAAAGGGUAUGGUAAUAAGCUGACGGACAUGGUCCUAACCACGCAGCCAAGUCCUAAGUCAACAGAUCUUCUGUUGAUAUGGAUGCAGUUCACAGACUAAAUGUCGGUCGGGGAAGAUGUAUUCUUCUCAUAAGAUAUAGUCGGACCUCUCCUUAAUGGGAGCUAGCGGAUGAAGUGAUGCAACACUGGAGCCGCUGGGAACUAAUUUGUAUGCGAAAGUAUAUUGAUUAGUUUUGGAGUACUCGUGGUCG
Procedure, shortened: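 Colonies from six replicate transformations of E. coli BL21(DE3) were pooled and amplicon-sequenced on an Illumina HiSeq 2500. The library placed an intron with all eight P1ex-region nucleotides randomised inside the knt kanamycin-resistance gene on pET-22b(+), and cells grew overnight at 37°C or 30°C on LB agar with or without 25 μg/mL kanamycin (plus 100 μg/mL carbenicillin, 50 μM IPTG, 0.2% rhamnose). Fitness is the DiMSum error-weighted combination of wild-type-normalised replicate fold changes, kanamycin versus none.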

| Sequence | self-splicing fitness (ln) (30 °C) | self-splicing fitness (ln) (37 °C) |
| --- | --- | --- |
| AAAAAGCAAUAUUACGAACG | -0.0786 ± 0.076 | -0.303 ± 0.1 |
| AAAAAGCAAUAUUACGAAGC |  | -1.85 ± 0.22 |
| AAAAAGCAAUAUUACGACCG | -0.107 ± 0.13 | -0.00629 ± 0.17 |
| AAAAAGCAAUAUUACGACGC | -0.27 ± 0.086 | -0.264 ± 0.1 |
| AAAAAGCAAUAUUACGAGAA | -2.33 ± 0.33 | -0.686 ± 0.27 |
| AAAAAGCAAUAUUACGAGGA | -2.86 ± 0.16 | -2.21 ± 0.15 |
| AAAAAGCAAUAUUACGAUAG | -3.26 ± 0.17 | -1.11 ± 0.15 |
| AAAAAGCAAUAUUACGAUUG | -1.86 ± 0.093 | -1.67 ± 0.13 |
| AAAAAGCAAUAUUACGCAUG | -0.952 ± 0.066 | 0.04 ± 0.074 |
| AAAAAGCAAUAUUACGCCAG | -2.24 ± 0.14 | -2.24 ± 0.23 |
| AAAAAGCAAUAUUACGCGGA | -1.95 ± 0.11 | -0.504 ± 0.11 |
| AAAAAGCAAUAUUACGCGUG | -1.12 ± 0.064 | -1.18 ± 0.076 |
| AAAAAGCAAUAUUACGCGUU | -2.73 ± 0.11 | -1.44 ± 0.11 |
| AAAAAGCAAUAUUACGCUCC | -1.14 ± 0.13 | -0.319 ± 0.17 |
| AAAAAGCAAUAUUACGCUCU | -1.08 ± 0.081 | -0.167 ± 0.09 |
| AAAAAGCAAUAUUACGGAAU | -2.25 ± 0.11 | -1.36 ± 0.13 |
| AAAAAGCAAUAUUACGGCUG | -0.648 ± 0.085 | -0.345 ± 0.13 |
| AAAAAGCAAUAUUACGGGAG | -2.11 ± 0.11 | -1.04 ± 0.12 |
| AAAAAGCAAUAUUACGGGGU | -3.62 ± 0.16 | -2.32 ± 0.17 |
| AAAAAGCAAUAUUACGUAAA | -1.82 ± 0.086 | -1.19 ± 0.09 |
| AAAAAGCAAUAUUACGUAGA | -2.21 ± 0.062 | -1.33 ± 0.065 |
| AAAAAGCAAUAUUACGUAGC | -3.26 ± 0.15 | -1.64 ± 0.12 |
| AAAAAGCAAUAUUACGUGAC | -2.84 ± 0.14 | -2.31 ± 0.17 |
| AAAAAGCAAUAUUACGUGCG | -0.427 ± 0.052 | -0.846 ± 0.064 |
| AAAAAGCAAUAUUACGUGUU | -2.04 ± 0.055 | -1.22 ± 0.068 |
| AAACAGCAAUAUUACGAGAA |  | -1.95 ± 0.17 |

| Sequence | self-splicing fitness (ln) (30 °C) | self-splicing fitness (ln) (37 °C) |
| --- | --- | --- |
| AAACAGCAAUAUUACGAGAC | -3.96 ± 0.25 | -2.66 ± 0.25 |
| AAACAGCAAUAUUACGAGUA | -1.79 ± 0.1 | -1.68 ± 0.11 |
| AAACAGCAAUAUUACGAUAC | -2.44 ± 0.11 | -1.37 ± 0.14 |
| AAACAGCAAUAUUACGAUCU | -0.534 ± 0.063 | 0.138 ± 0.076 |
| AAACAGCAAUAUUACGCAAG | -2.56 ± 0.13 | -1.8 ± 0.14 |
| AAACAGCAAUAUUACGCACA | -0.828 ± 0.085 | 0.269 ± 0.1 |
| AAACAGCAAUAUUACGCAGC | -1.83 ± 0.14 | -1.98 ± 0.23 |
| AAACAGCAAUAUUACGCGGC | -3.54 ± 0.12 | -2.7 ± 0.12 |
| AAACAGCAAUAUUACGCGUG | -1.42 ± 0.052 | -0.0443 ± 0.066 |
| AAACAGCAAUAUUACGCUAG | -1.39 ± 0.095 | -1.12 ± 0.13 |
| AAACAGCAAUAUUACGCUGG | -2.53 ± 0.12 | -2.62 ± 0.2 |
| AAACAGCAAUAUUACGGAAA | -3.16 ± 0.18 | -1.8 ± 0.13 |
| AAACAGCAAUAUUACGGCAC | -1.72 ± 0.083 | -0.057 ± 0.1 |
| AAACAGCAAUAUUACGGCAG | -2.08 ± 0.099 | -0.063 ± 0.1 |
| AAACAGCAAUAUUACGGCCA | -1.41 ± 0.11 | -0.0737 ± 0.12 |
| AAACAGCAAUAUUACGGGCU | -3.15 ± 0.12 | -1.95 ± 0.13 |
| AAACAGCAAUAUUACGGUAA | -2.28 ± 0.1 | -0.892 ± 0.083 |
| AAACAGCAAUAUUACGGUCC | -2.09 ± 0.12 | -0.775 ± 0.11 |
| AAACAGCAAUAUUACGUCAU | -3.39 ± 0.12 | -1.55 ± 0.085 |
| AAACAGCAAUAUUACGUCCA | -1.19 ± 0.065 | -0.777 ± 0.073 |
| AAACAGCAAUAUUACGUCUA | -1.21 ± 0.065 | -0.311 ± 0.07 |
| AAACAGCAAUAUUACGUCUC | -3.42 ± 0.15 | -2.31 ± 0.16 |
| AAACAGCAAUAUUACGUGUA | -2.6 ± 0.1 | -1.41 ± 0.089 |
| AAACAGCAAUAUUACGUGUU | -4.29 ± 0.15 | -2.24 ± 0.11 |
| AAACAGCAAUAUUACGUUUA | -2.11 ± 0.1 | -0.623 ± 0.078 |
| AAACAGCAAUAUUACGUUUG | -2.49 ± 0.1 | -1.51 ± 0.099 |

| Sequence | self-splicing fitness (ln) (30 °C) | self-splicing fitness (ln) (37 °C) |
| --- | --- | --- |
| AAAGAGCAAUAUUACGAAAU | -2.67 ± 0.23 | -2.4 ± 0.24 |
| AAAGAGCAAUAUUACGACUC | -1.4 ± 0.071 | -0.537 ± 0.1 |
| AAAGAGCAAUAUUACGAGAA | -2.11 ± 0.46 |  |
| AAAGAGCAAUAUUACGAUCA | -3.02 ± 0.21 | -1.68 ± 0.14 |
| AAAGAGCAAUAUUACGCAAC | -2.78 ± 0.26 | -1.77 ± 0.42 |
| AAAGAGCAAUAUUACGCCAG | -3.87 ± 0.35 | -0.837 ± 0.21 |
| AAAGAGCAAUAUUACGCCAU | -3.65 ± 0.22 | -2.55 ± 0.29 |
| AAAGAGCAAUAUUACGCCUU | -3.49 ± 0.29 | -1.81 ± 0.23 |
| AAAGAGCAAUAUUACGCGCU | -2.96 ± 0.4 |  |
| AAAGAGCAAUAUUACGCUAU |  | -2.46 ± 0.21 |
| AAAGAGCAAUAUUACGGAAC |  | -2.8 ± 0.44 |
| AAAGAGCAAUAUUACGGAGU | -3.33 ± 0.2 | -3.16 ± 0.26 |
| AAAGAGCAAUAUUACGGCAU | -1.83 ± 0.087 | -0.726 ± 0.097 |
| AAAGAGCAAUAUUACGGCGU | -1.87 ± 0.098 | 0.269 ± 0.094 |
| AAAGAGCAAUAUUACGGUCC | -3.16 ± 0.44 | -0.864 ± 0.38 |
| AAAGAGCAAUAUUACGUAGU | -2.39 ± 0.16 | -2.46 ± 0.22 |
| AAAGAGCAAUAUUACGUAUU | -3.03 ± 0.2 | -1.2 ± 0.14 |
| AAAGAGCAAUAUUACGUCGA | -3.5 ± 0.27 | -2.09 ± 0.18 |
| AAAGAGCAAUAUUACGUCGU | -3.75 ± 0.26 | -2.62 ± 0.17 |
| AAAGAGCAAUAUUACGUGCU | -3.28 ± 0.22 | -2.82 ± 0.25 |
| AAAGAGCAAUAUUACGUUAC | -2.94 ± 0.31 |  |
| AAAUAGCAAUAUUACGAAAC | -3.4 ± 0.27 | -1.76 ± 0.18 |
| AAAUAGCAAUAUUACGAAAU | -3.02 ± 0.15 | -1.2 ± 0.13 |
| AAAUAGCAAUAUUACGAAUG | -1.37 ± 0.12 | -1.62 ± 0.16 |
| AAAUAGCAAUAUUACGACAA | -0.727 ± 0.1 | -0.284 ± 0.1 |
| AAAUAGCAAUAUUACGAGAG | -4.01 ± 0.3 | -2.49 ± 0.28 |

— the supplement of paper PMC7877785
